These results are taken from patent US20050196808A1 (published 2005).

Non-standard residues stand in square brackets, D forms with d. No end group written: not given here. pY = N[C@@H](Cc1ccc(OP(=O)(O)O)cc1)C(=O)O; pT = C[C@@H](OP(=O)(O)O)[C@H](N)C(=O)O

Assay [1] has as its target BRCTtide-7pS, GAAYDI-pS-…. Briefly: ITC, peptide injected into 15 µM GST-(BRCT)2.
The target in assay [2] is BRCTtide-7pT, GAAYDI-pT-…. Nature of the assay: ITC, peptide injected into 15 µM GST-(BRCT)2. A general note: In ITC the heat of successive injections is recorded.
The target of assay [3] is PoloBoxtide with Asn substituted for Pro at pThr+1. Nature of the assay: ITC.
The target in assay [4] is PoloBoxtide with phosphoserine substituted for phosphothreonine. Briefly: ITC.
In assay [5] the target is PoloBoxtide-optimal, MAGPMQ-S-pT-P-LNGAKK. Nature of the assay: isothermal titration calorimetry (ITC), peptide injected into 15 µM PBD.
The target of assay [6] is Plk-1 Polo-box Domain (PBD, residues 326-603) (human) (UniProt P53350). Briefly: isothermal titration calorimetry [table].
Assay [7] shares this target. Nature of the assay: isothermal titration calorimetry.
Assay [8] has as its target T1, Plk-1 Polo-box Domain (PBD, residues 326-603) (human, UniProt P53350 326-603).
T1 construct: also called Plk-1 PBD; Plk1 PBD
Briefly: isothermal titration calorimetry [table]. The procedure:
(§1) Some peptides contained an additional tyrosine residue to facilitate concentration determination by optical absorbance. Calorimetry measurements were performed using a VP-ITC microcalorimeter (MicroCal Inc., Studio City, Calif.). […] Thirty injections were performed with a spacing of 240 s and a reference power of 25 μCal/s. Binding isotherms were plotted and analyzed using Origin Software (MicroCal Inc. Studio City, Calif.).

Assay [9] concerns the target T1, Plk-1 Polo-box Domain (PBD, residues …). Nature of the assay: isothermal titration calorimetry [ITC panels]. As to the method:
as §1

The target in assay [10] is T2, Cdc25C, mitotically phosphorylated (up-shifted) form, endogenous in nocodazole-arrested HeLa cells (human, UniProt P30307 1-473, limits assumed, extensively phosphorylated at the N-terminus in mitosis, including phosphothreonine at 130).
T2 construct: also called mitotically up-shifted form of Cdc25C; mitotically phosphorylated Cdc25C
T2 sequence (looked up): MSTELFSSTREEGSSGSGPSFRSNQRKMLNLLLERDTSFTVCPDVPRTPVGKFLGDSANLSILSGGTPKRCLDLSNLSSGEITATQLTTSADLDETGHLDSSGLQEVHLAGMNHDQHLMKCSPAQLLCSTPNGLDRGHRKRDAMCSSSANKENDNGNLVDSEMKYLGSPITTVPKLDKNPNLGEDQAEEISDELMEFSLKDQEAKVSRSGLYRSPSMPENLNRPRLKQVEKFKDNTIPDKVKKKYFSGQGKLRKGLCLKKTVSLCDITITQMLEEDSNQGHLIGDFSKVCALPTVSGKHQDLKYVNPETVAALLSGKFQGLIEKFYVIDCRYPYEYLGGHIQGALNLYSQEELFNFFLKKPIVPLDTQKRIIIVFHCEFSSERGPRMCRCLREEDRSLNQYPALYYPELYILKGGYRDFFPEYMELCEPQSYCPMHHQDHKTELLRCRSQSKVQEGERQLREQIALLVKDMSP
Briefly: Ni2+ bead pull-down from nocodazole-arrested transfected HeLa cells, blot α-Cdc25.

What is called Kd is the equilibrium constant for the complex coming apart. Lower therefore signals higher affinity. In turn, “GST-BRCA1 tandem BRCT domains (residues 1634-1863) (from UniProt P38398 1634-1863)” came in with an equilibrium dissociation constant (Kd) in assay [1] of 400 nM. For the molecule “GST-PTIP tandem BRCT domains (residues 550-757) (from UniProt Q6ZW49 862-1069)”, the Kd stood at 14300 nM in assay [2] and 280 nM in [1]. Take “Plk-1 Polo-box Domain (PBD, residues 326-603) (from UniProt P53350 326-603)”: the fold increase in Kd against PoloBoxtide-optimal in assay [3] is more than 5 fold. Moreover, the fold drop in affinity against PoloBoxtide-optimal in assay [4] came to 7 fold. The dissociation constant (Kd) in [5] turned out to be 280 nM. In assay [6], “PoloBoxtide with Asn substituted for Pro at pThr+1 (peptide)” had a Kd of 1500 nM.

In assay [6], “PoloBoxtide with phosphoserine substituted for phosphothreonine (peptide)” displayed a dissociation constant Kd of 2100 nM. As to “PoloBoxtide-optimal, MAGPMQ-S-pT-P-LNGAKK (peptide)”, the Kd in [6] and in [7] was 280 nM in each case.

B1: PoloBoxtide with Ser at pThr-1 replaced with Ala (peptide)
peptide: MAGPMQA[pT]PLNGAKK
Turning to B1, in assay [8], the binding result is reported as “no binding (tested: 150 µM Plk-1 PBD)”.

B2: PoloBoxtide with Ser at pThr-1 replaced with Gly (peptide)
peptide: MAGPMQG[pT]PLNGAKK
Regarding B2, the binding result in [8] is recorded as “no binding (tested: 150 µM Plk-1 PBD)”.

B3: PoloBoxtide with phosphotyrosine substituted for phosphothreonine (peptide)
peptide: MAGPMQS[pY]PLNGAKK
notes: built from the optimal peptide
For B3, the binding result in [8] is “no binding (tested: 150 µM Plk-1 PBD)”.

B4: PoloBoxtide-7V (peptide)
peptide: MAGPMQV[pT]PLNGAKK
notes: also called phosphopeptide whose serine at pThr-1 was mutated to valine
As to B4, the binding result in [9] is recorded as “no binding (tested: molar ratio about 2.7)”.

B5: PoloBoxtide with Ser at pThr-1 replaced with Thr (peptide)
peptide: MAGPMQT[pT]PLNGAKK
Turning to B5, the binding result in [8] is listed as “no binding (tested: 150 µM Plk-1 PBD)”.

B6: PoloBoxtide with Ser at pThr-1 replaced with Cys (peptide)
peptide: MAGPMQC[pT]PLNGAKK
Consider B6, for which the binding result in assay [8] is on record as “no binding (tested: 150 µM Plk-1 PBD)”.

B7: His-Xpress-tagged control Plk1 PBD construct lacking the second Polo-box (residues 326-506) (other)
chain: SIAPSSLDPSNRKPLTVLNKGLENPLPERPREKEEPVVRETGEVVDCHLSDMLQQLHSVNASKPSERGLVRQEEAEDPACIPIFWVSKWVDYSDKYGLGYQLCDNSVGVLFNDSTRLILYNDGDSLQYIERDGTESYLTVSSHPNSLMKKITLLKYFRNYMSEHLLKAGANITPREGDELA
notes: not shown: His-Xpress tag
With B7, the binding result in assay [10] was “no binding”.
